We go through 5 molecules from patent US6051698, “Vascular endothelial growth factor (VEGF) nucleic acid ligand complexes”.

In series [1] the target is T1, VEGF165 (Homo sapiens, UniProt P15692-4 P15692-4:27-191). As to the kind of experiment: filter; 37 C. Particulars: tags: R&D Systems, expressed in Sf21 insect cells, carrier-free; chain copies: 2. The method, then:
Nucleic Acid Ligands radiolabeled during transcription by incorporation of α-[^32P]-labeled NTPs, or after synthesis using γ-[^32P]-ATP and T4 polynucleotide kinase, were incubated in low concentration (between 20 and 70 pM) with varying concentrations of VEGF or other growth factors at 37° C. for 15 minutes. Incubations were in TBS, PBS, or HEPES-buffered saline (HBS), pH 7.4, with or without the addition of supplemental divalent cations. Samples were passed through prewashed 0.45μ Type HA filters (Millipore) followed by a 5–10 ml wash with binding buffer. Filters were immersed in scintillant and counted to quantitate the amount of protein-bound RNA retained by each filter. The equilibrium dissociation constant (K_D) of Nucleic Acid Ligand binding to a specific protein was calculated from thc data points as described in Green et al. (1996) Biochem. 35: 14413–14424.

Series [2] concerns the target T1, VEGF165. Kind of series: filter; EDTA, no divalents; Mg2+ does not rescue, Ca2+ fully restores. Particulars: tags: R&D Systems, expressed in Sf21 insect cells, carrier-free; chain copies: 2.

T1 sequence (P15692 other isoform, or with tags, fused parts or gaps): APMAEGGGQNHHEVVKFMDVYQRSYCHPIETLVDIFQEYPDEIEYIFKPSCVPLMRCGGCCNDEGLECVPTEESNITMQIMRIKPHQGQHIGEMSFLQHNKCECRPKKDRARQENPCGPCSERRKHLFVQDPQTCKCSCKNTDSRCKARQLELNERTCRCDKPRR

B1: t22e (ssRNA)
RNA: GGUAGGAAGAAUUGGAAGCGCT
modifications: 2'-F pyrimidines, 2'-OH purines, 3'-3' dT cap [22 (3'-3' dT cap); 2'-F pyrimidines 3,12,13,19,21]
The term Kd denotes the free concentration of one partner at which half of the binding sites on the other are occupied at equilibrium, for simple one-to-one binding. The low end stands for higher affinity, the high end for lower affinity. Take B1: in the series with VEGF165 [1], the dissociation constant (Kd) turned out to be 0.2 nM.

B2: t22OMe (OH-12,22) (ssRNA)
RNA: GACGAUGCGGUAGGAAGAAUUGGAAGCGC
modifications: 2'-F pyrimidines, 2'-OMe purines except 2'-OH at A12, G22
On to B2, for which the dissociation constant Kd with VEGF165 [1] came to 0.09 nM.

B3: t22 (ssRNA)
RNA: GACGAUGCGGUAGGAAGAAUUGGAAGCGCT
modifications: 2'-F pyrimidines, 2'-OH purines, 3'-3' dT cap [30 (3'-3' dT cap); 2'-F pyrimidines 3,6,8,11,20,21,27,29]
The molecule B3 came in with a Kd in the series with VEGF165 [1] of 0.07 nM.

B4: t2 (ssRNA)
RNA: GGCGAACCGAUGGAAUUUUUGGACGCUCGCCT
modifications: 2'-F pyrimidines, 2'-OH purines, 3'-3' dT cap [32 (3'-3' dT cap); 2'-F pyrimidines 3,7,8,11,16,17,18,19,20,24,26,27,28,30,31]
In turn, B4 yielded a dissociation constant (Kd) with VEGF165 [1] of 0.02 nM.

B5: t44OMe (ssRNA)
RNA: CGGAAUCAGUGAAUGCUUAUACAUCCG
modifications: 2'-F pyrimidines, 2'-OMe purines except two 2'-OH purines
With B5, in the series with VEGF165 [2], the Kd was more than 100 nM.
